# From patent publication US20250197490A1 (HBM ALPHA THERAPEUTICS, published 2025)
# Numbering of substitutions follows the chain as printed.
# T1: biotinylated CRH (human and mouse, UniProt P01143 145-185 (rat entry), not fully specified; biotin; which end is not stated for the result (NT-biotin and CT-biotin forms were used))
# T1 construct: also called biotin-CRH; CRH (NT biotin)
# T1 peptide: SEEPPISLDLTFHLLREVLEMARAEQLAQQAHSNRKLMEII
# T2: corticotropin-releasing hormone (CRH) peptide (human and mouse, UniProt P01143 145-185 (rat entry), not fully specified)
# T2 peptide: T1 peptide
# B1: PR302335 (antibody, human IgG1, kappa, V domains shown)
# VH: DVQLVESGGGLVQPGGSRKLSCAASGFTFSSFGMHWVRQAPEKGLEWVAYISSGSTIFYYADTVKGRFTISRDNPKNTLFLQMTSLRSEDTAMYYCARDITTATFAFWGQGTLVTVSA
# VL: DVVLTQTPLSLPVSLGDQVSISCRSSQNLLHNNGNTYLHWYLQKPGQSPRLLIYKVSNRFSGVPDRFSGSGSGTDFTLKITRVEAEDLGVYFCSQSTHIPWTFGGGTKLEIKR
# B2: PR302324 (antibody, human IgG1, kappa, V domains shown)
# VH: EVQLQQSGPELVKPGASVKMSCKASGYTFTDYFMKWVKQSHGGSLEWIGVISPNNGDTFYNQKFKGKATLTVDKSSSTAFMQLNSLTSEDSAVYSCARGTDRALFAYWGQGTLVTVSA
# VL: DVLMTQTPLSLPVSLGDQASISCRSSQSIVHSDGNTYLEWYLQRPGQSPKLLIYKVSNRFSGVPDRFSGSGSGTDFTLKISRVGAEDLGVYYCFQGSHIPWTFGGGTKLEVKR
# B3: PR302312 (antibody, human IgG1, kappa, V domains shown)
# VH: B2 VH with V37M, G43K, S52N, K63N, F80Y, S95Y, A97T, D101A
# VL: B2 VL with I99V
# B4: PR302333 (antibody, human IgG1, kappa, V domains shown)
# VH: QIQLVQSGPELKKPGETVKISCKASGYTFTNFGMNWVKQAPGKVLKWMGWINTYTGEPIYADDFKGRFAFSLETSASAAYLQINNLKNEDTATYFCSRSTMITTGGVFAYWGQGTLVTVSA
# VL: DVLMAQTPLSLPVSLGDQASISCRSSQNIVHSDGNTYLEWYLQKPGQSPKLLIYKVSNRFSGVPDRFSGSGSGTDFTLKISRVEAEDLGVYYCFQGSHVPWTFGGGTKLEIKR
# B5: PR302332 (antibody, human IgG1, kappa, V domains shown)
# VH: B4 VH with N35H, D62A, A78T
# VL: B2 VL with T5A, R44K, G84E, I99V, V111I
# B6: PR302328 (antibody, human IgG1, kappa, V domains shown)
# VH: EVKLVESGGGLVKPGGSLKLSCAASGFTFSSYAMSWVRQTPEKRLEWVASIRSGGTTYYPDSVKGRFTISRDNARNILYLQMSSLRSEDTAIYYCTRGIDWGQGTLVTVSA
# VL: NIVMTQTPKFLLVSAGDRVTITCKASQSVNNDVAWYQQKPGQSPKLLIYYASNRYTGVPDRFTGSGYGTDFTFTISTVQAEDLAVYFCQQDYSSWTFGGGTKLEIKR
# B7: PR302339 (antibody, human IgG1, kappa, V domains shown)
# VH: B6 VH with M34L
# VL: B6 VL
# B8: PR302331 (antibody, human IgG1, kappa, V domains shown)
# VH: B6 VH with T40S
# VL: B6 VL with T22A
# B9: PR302031 (antibody, human IgG1, kappa, V domains shown)
# VH: EVQLVESGGGLVQPGGSLRLSCAASGFTFSNYWMNWVRQAPGKGLEWVGEIRLKSNNYATHYAESVKGRFTISRDDSKNSLYLQMNSLKTEDTAVYYCTVGTLVYWGQGTLVTVSS
# VL: EIVLTQSPATLSLSPGERATLSCRASQSVSTSTYNYMHWFQQKPGQAPRLLIKFASNLESGIPARFSGSGSGTDFTLTISSLEPEDTAVYYCQHSWEIPYTFGQGTKLEIKR
# B10: PR302041 (antibody, human IgG1, kappa, V domains shown)
# VH: B9 VH with V2M, G49A, N79S, L81V
# VL: DIQLTQSPSSLSASVGDRVTITCRASQSVSTSTYNYMHWFQQKPGKAPKLLIKFASNLESGVPSRFSGSGSGTDFTLTISSLQPEDTATYYCQHSWEIPYTFGQGTKLEIKR
# B11: PR302045 (antibody, human IgG1, kappa, V domains shown)
# VH: B9 VH with R19K, P41S, S80T, L81A, V100R
# VL: B9 VL
# B12: PR302066 (antibody, human IgG1, kappa, V domains shown)
# VH: B9 VH with V2M, Q13K, G49A, N79S, S80T, L81V
# VL: B9 VL
# B13: PR302052 (antibody, human IgG1, kappa, V domains shown)
# VH: B9 VH with V2M, R19K, P41S, G49A, N79S, S80T, L81V
# VL: B9 VL
# B14: PR302048 (antibody, human IgG1, kappa, V domains shown)
# VH: B9 VH with R19K, P41S, S80T, L81A, V100R
# VL: B10 VL
# B15: PR302069 (antibody, human IgG1, kappa, V domains shown)
# VH: B9 VH with V2M, Q13K, G49A, N79S, S80T, L81V
# VL: B10 VL
# B16: PR302055 (antibody, human IgG1, kappa, V domains shown)
# VH: B9 VH with V2M, R19K, P41S, G49A, N79S, S80T, L81V
# VL: B10 VL
# B17: PR302034 (antibody, human IgG1, kappa, V domains shown)
# VH: B9 VH
# VL: B10 VL
# B18: PR005657 (antibody, human IgG1, kappa, V domains shown)
# VH: EVQLVESGGVLVQPGGSLRLSCAASGFTFSSYWMTWVRQAPGKGLEWVANIKQDASEKYYVDSVKGRFTISRDNAKNSLFLQMNSLRAEDTAVYYCARTLIFDYWGQGTLVTVSS
# VL: DIVMTQSPLSLPVTPGEPASISCRSSQSLLHSTGYNSLEWYLQKPGQSPQLLIYLGSNRASGVPDRFSGSGSGTDFTLKISRVEAEDVGIYYCMQTLQTPITFGQGTRLEIKR
# B19: PR006146 (antibody, human IgG1, kappa, V domains shown)
# VH: B18 VH
# VL: B18 VL with N36D
# B20: PR006142 (antibody, human IgG1, kappa, V domains shown)
# VH: B18 VH with D54E, A55G
# VL: B18 VL with N36D
# B21: PR006150 (antibody, human IgG1, kappa, V domains shown)
# VH: B18 VH with A55S
# VL: B18 VL with N36D
# B22: PR006149 (antibody, human IgG1, kappa, V domains shown)
# VH: B18 VH
# VL: B18 VL with N36S
# B23: PR006152 (antibody, human IgG1, kappa, V domains shown)
# VH: B18 VH with A55S
# VL: B18 VL with S37P
# B24: PR006144 (antibody, human IgG1, kappa, V domains shown)
# VH: B18 VH with D54E, A55G
# VL: B18 VL with S37P
# B25: PR005658 (antibody, human IgG1, kappa, V domains shown)
# VH: B18 VH with A55G
# VL: B18 VL with N36Q
# B26: PR006147 (antibody, human IgG1, kappa, V domains shown)
# VH: B18 VH
# VL: B18 VL with N36H
# B27: PR006151 (antibody, human IgG1, kappa, V domains shown)
# VH: B18 VH with A55S
# VL: B18 VL with N36H
# B28: PR006148 (antibody, human IgG1, kappa, V domains shown)
# VH: B18 VH
# VL: B18 VL with S37P
# B29: PR005662 (antibody, human IgG1, kappa, V domains shown)
# VH: B18 VH
# VL: B18 VL with N36Q
# B30: PR006153 (antibody, human IgG1, kappa, V domains shown)
# VH: B18 VH with A55S
# VL: B18 VL with N36S
# Target: T1, biotinylated CRH
# Experiment: ELISA, CRH (NT biotin)
row,binding result,Binder
1,binds,B1
2,binds,B2
3,binds,B3
4,binds,B4
5,binds,B5
6,binds,B6
7,binds,B7
8,binds,B8

# Target: T2, corticotropin-releasing hormone (CRH) …
# Experiment: cell-based or functional assay
row,unlabelled nM value (Table 5 matrix; likely hCRHR1-Luc IC50 as in Tables 6-8) [nM],Binder
1,14,B9
2,2.54,B10
3,15.3,B11
4,2.49,B12
5,2.05,B13
6,6.66,B14
7,1.54,B15
8,1.35,B16
9,6.87,B17

# Target: T1, biotinylated CRH
# Experiment: ELISA, CRH (NT biotin)
# Remark: another data set of the same source
# Protocol: Streptavidin (Thermo, Cat: 21125) was diluted in PBS to a concentration of 2 μg/ml. 100 μl of diluted streptavidin was added per well to ELISA microplates, and the plates were incubated overnight at 4° C. […] Subsequently, plates were washed and incubated with HRP-conjugated goat anti-human IgG (H+L) antibody (Jackson, Cat: 109-035-088) at 37° C. for 1 hour. 100 μL of 3,3′,5,5′-tetramethylbenzidine (TMB) substrate (Biopanda, Cat: TMB-S-003) was added, and the plates were incubated at room temperature for 15 minutes. 100 μL of ELISA stopping solution (Solarbio, Cat #: C1058) was added to terminate the reaction, and the optical density at 450 nm (OD450 nm) was determined by an ELISA plate reader (Molecular Devices, Spectra max 384 plus).
# These potential PTMs were mutated individually either in HCDR2 alone, in LCDR1 alone, or in various combinations of mutations, as detailed in Table 3. […] Most ΔPTM variants retained functional activities.
EC50 (read off the curve) [nM],binding result,Binder
~0.03,,B18
,binds,B19
,binds,B20
,binds,B21
,binds,B22
,binds,B23
,binds,B24
~0.03,,B25
,binds,B26
,binds,B27
,binds,B28
~0.03,,B29
,binds,B30
